Measured values reported in US20180236024A1 (STC UNM, published 2018).

T1: radiolabeled Myc-TRIM20 (human, UniProt O15553 1-781, [35S] L-methionine label)
T1 construct: In vitro translated for GST pull-down; the peptide array of TRIM20 peptides is also written under this molecule; not shown: Myc tag
T1 sequence: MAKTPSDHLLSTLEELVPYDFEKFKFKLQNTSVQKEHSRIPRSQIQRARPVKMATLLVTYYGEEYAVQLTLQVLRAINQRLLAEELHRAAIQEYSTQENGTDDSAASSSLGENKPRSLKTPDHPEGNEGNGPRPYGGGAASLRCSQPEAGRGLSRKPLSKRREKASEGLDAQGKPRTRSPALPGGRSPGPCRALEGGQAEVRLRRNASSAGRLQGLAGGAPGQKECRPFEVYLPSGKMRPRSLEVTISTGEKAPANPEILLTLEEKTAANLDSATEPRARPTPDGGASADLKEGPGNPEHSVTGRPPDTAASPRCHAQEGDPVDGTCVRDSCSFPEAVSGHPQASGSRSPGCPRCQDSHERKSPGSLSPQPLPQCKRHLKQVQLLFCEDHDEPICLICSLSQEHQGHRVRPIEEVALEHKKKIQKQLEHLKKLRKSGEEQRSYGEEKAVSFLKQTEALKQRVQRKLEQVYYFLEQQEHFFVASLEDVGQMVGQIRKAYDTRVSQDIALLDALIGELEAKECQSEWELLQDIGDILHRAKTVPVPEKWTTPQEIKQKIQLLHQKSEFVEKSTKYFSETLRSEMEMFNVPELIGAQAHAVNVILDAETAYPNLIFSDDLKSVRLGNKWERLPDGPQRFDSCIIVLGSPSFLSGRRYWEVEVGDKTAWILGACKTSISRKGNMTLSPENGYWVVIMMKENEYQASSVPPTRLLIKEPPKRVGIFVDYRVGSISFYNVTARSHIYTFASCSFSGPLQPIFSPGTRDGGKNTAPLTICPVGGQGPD

B1: GST-GABARAP (other)
chain: MKFVYKEEHPFEKRRSEGEKIRKKYPDRVPVIVEKAPKARIGDLDKKKYLVPSDLTVGQFYFLIRKRIHLRAEDALFFFVNNVIPPTSATMGQLYQEHHEEDFFLYIAYSDESVYGL
notes: GST fusion made in E. coli; not shown: GST tag
B2: GFP-TRIM20 (full-length human TRIM20) (other)
chain: MAKTPSDHLLSTLEELVPYDFEKFKFKLQNTSVQKEHSRIPRSQIQRARPVKMATLLVTYYGEEYAVQLTLQVLRAINQRLLAEELHRAAIQEYSTQENGTDDSAASSSLGENKPRSLKTPDHPEGNEGNGPRPYGGGAASLRCSQPEAGRGLSRKPLSKRREKASEGLDAQGKPRTRSPALPGGRSPGPCRALEGGQAEVRLRRNASSAGRLQGLAGGAPGQKECRPFEVYLPSGKMRPRSLEVTISTGEKAPANPEILLTLEEKTAANLDSATEPRARPTPDGGASADLKEGPGNPEHSVTGRPPDTAASPRCHAQEGDPVDGTCVRDSCSFPEAVSGHPQASGSRSPGCPRCQDSHERKSPGSLSPQPLPQCKRHLKQVQLLFCEDHDEPICLICSLSQEHQGHRVRPIEEVALEHKKKIQKQLEHLKKLRKSGEEQRSYGEEKAVSFLKQTEALKQRVQRKLEQVYYFLEQQEHFFVASLEDVGQMVGQIRKAYDTRVSQDIALLDALIGELEAKECQSEWELLQDIGDILHRAKTVPVPEKWTTPQEIKQKIQLLHQKSEFVEKSTKYFSETLRSEMEMFNVPELIGAQAHAVNVILDAETAYPNLIFSDDLKSVRLGNKWERLPDGPQRFDSCIIVLGSPSFLSGRRYWEVEVGDKTAWILGACKTSISRKGNMTLSPENGYWVVIMMKENEYQASSVPPTRLLIKEPPKRVGIFVDYRVGSISFYNVTARSHIYTFASCSFSGPLQPIFSPGTRDGGKNTAPLTICPVGGQGPD
notes: also called T20; wild type TRIM20; not shown: GFP tag

Legend:
radiolabeled Myc-TRIM20 = target: T1, radiolabeled Myc-TRIM20; experiment: GST pull-down of radiolabeled Myc-TRIM20
NLRP3 = target: T2, NLRP3 (UniProt Q96P20 1-1036); experiment: co-IP of GFP-TRIM20 variants with NLRP3, HEK293 cells
T2 construct: also called Flag-NLRP3; endogenous NLRP3
T2 sequence (Q96P20 whole entry): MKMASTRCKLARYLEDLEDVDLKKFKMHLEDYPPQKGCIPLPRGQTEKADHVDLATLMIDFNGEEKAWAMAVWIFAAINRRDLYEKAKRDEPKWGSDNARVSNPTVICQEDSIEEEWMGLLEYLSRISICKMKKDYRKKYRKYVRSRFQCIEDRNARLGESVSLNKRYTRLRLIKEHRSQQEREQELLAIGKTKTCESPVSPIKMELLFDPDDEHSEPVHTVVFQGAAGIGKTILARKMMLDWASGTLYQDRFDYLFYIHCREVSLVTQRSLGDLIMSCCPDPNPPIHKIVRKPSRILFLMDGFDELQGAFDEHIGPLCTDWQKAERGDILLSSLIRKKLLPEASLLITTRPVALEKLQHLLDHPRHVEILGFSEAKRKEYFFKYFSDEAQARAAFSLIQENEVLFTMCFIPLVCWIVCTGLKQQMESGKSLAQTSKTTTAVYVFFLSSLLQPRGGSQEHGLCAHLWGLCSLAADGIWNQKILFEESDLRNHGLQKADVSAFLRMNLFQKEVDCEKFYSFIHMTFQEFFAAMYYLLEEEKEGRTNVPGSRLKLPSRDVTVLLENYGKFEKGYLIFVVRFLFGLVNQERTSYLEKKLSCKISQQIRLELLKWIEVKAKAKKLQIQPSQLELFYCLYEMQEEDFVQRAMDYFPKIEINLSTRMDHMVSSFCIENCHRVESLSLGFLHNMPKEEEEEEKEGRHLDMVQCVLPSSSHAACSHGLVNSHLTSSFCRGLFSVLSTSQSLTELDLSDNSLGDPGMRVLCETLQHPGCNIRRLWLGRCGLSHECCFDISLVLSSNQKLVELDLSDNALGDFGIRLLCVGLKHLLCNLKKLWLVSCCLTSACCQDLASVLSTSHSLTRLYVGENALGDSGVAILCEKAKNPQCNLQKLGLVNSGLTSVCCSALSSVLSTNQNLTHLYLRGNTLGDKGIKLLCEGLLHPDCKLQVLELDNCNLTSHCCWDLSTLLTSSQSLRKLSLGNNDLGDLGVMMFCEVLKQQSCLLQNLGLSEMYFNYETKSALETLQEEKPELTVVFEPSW

Binder	binding result (radiolabeled Myc-TRIM20)	binding result (NLRP3)
B1	binds	–
B2	–	binds
